System: O=[N+]([O-])c1ccc(OP(=O)(O)O)cc1
Assay: purified protein
[1] = pH 7.5 (20 mM Tris, 150 mM NaCl), 37 °C, 2-8 mM pNPP

Substance: rMIP_07528 (rPtpB-MIP, rMIPPtpB) (Mycobacterium intracellulare ATCC 13950)
- Km [1]: 300 µM
- kcat [1]: 0.005 s⁻¹

Substance: rPtpB-Mtb (rMTBPtpB) (Mycobacterium tuberculosis H37Rv)
- Km (pH 7.5, 37.0 °C): 1010 µM
